Reference: US20200247894A1 (Regeneron, published 2020)
Changes are numbered by the printed parent chain.

Tests used:
[1] = target: T1, Human IL2Rγ extracellular domain expressed with a C-terminal myc-myc-hexahistidine tag (human); assay: SPR, captured mAb, 37C, dissociation pH 6.0
T1 construct: also called hIL-2Rg-MMH; hIL-2RG-MMH
T1 chain: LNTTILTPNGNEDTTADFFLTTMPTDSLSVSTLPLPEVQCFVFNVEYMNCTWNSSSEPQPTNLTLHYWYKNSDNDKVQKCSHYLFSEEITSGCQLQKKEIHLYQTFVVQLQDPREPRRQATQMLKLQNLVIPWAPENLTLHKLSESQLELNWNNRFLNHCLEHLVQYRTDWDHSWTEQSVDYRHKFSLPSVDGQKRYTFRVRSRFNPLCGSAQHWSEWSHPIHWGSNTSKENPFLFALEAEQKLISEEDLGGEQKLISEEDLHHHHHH
Summary of the method: (§1)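 Read-out is the dissociation rate constant (kd), derived by 1:1 fitting of real-time binding curves. The antibodies, formatted as human IgG4 Fc, sat on an anti-human Fc capture surface. Bound receptor was washed off in PBS-T for 6 minutes.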

[2] = target: T1, Human IL2Rγ extracellular domain …; assay: SPR, captured mAb, 37C, dissociation pH 7.4
Summary of the method: as §1

[3] = target: T2, Macaca fascicularis IL2Rγ extracellular domain expressed with a C-terminal myc-myc-hexahistidine tag (Macaca fascicularis); assay: SPR, captured mAb, 25C, dissociation pH 6.0
T2 construct: also called mfIL-2Rg-MMH; mfIL-2RG-MMH
T2 chain: T1 chain with T14A, A16T, T22S, H141R, T228S
Summary of the method: as §1

[4] = target: T1, Human IL2Rγ extracellular domain …; assay: SPR, captured mAb, 25C, dissociation pH 6.0
Summary of the method: as §1

[5] = target: T2, Macaca fascicularis IL2Rγ extracellular …; assay: SPR, captured mAb, 25C, dissociation pH 7.4
Summary of the method: as §1

[6] = target: T1, Human IL2Rγ extracellular domain …; assay: SPR, captured mAb, 25C, dissociation pH 7.4
Summary of the method: as §1

[7] = target: T3, Macaca fascicularis IL2Rγ extracellular domain expressed with a C-terminal myc-myc-hexahistidine tag (Macaca fascicularis); assay: SPR Biacore 4000, mAb captured by anti-hFc, 37C, dissociation in PBS-T pH 6.0
T3 construct: also called mfIL-2Rg-MMH; mfIL-2RG-MMH
T3 chain: T1 chain with T14A, A16T, T22S, H141R, T228S
Experimental: (§2) The dissociation rate constant (kd) for binding of IL-2Rγ reagents to purified anti-IL2Rγ monoclonal antibodies was determined using a real-time surface plasmon resonance based Biacore 4000 biosensor platform. […] The CM5 Biacore sensor surface derivatized by amine coupling with monoclonal mouse anti-human Fc antibody (GE, Catalog # BR-1008-39) was used to capture anti-IL2Rγ monoclonal antibodies expressed with human IgG4 Fc. All the IL2Rγ reagents were expressed with a C-terminal myc-myc-hexahistidine tag (subsequently referred to with a -MMH suffix). […] The dissociation of bound IL-2Rg-MMH was performed in PBS-T-pH7.4 or PBS-T-pH6.0 running buffers for 6 minutes.
(§3) Dissociation rate constants (kd) in two running buffers were determined by fitting the real-time binding sensorgrams to a 1:1 binding model using Scrubber 2.0c curve-fitting software. Values of dissociation rate for […] mAb binding to hIL-2RG-MMH and mfIL-2RG-MMH at 25° C. and 37° C. in PBS-T-pH7.4 and PBS-T-pH6.0 is shown in Table 2-1 through Table 2-8.

[8] = target: T3, Macaca fascicularis IL2Rγ extracellular …; assay: SPR Biacore 4000, mAb captured by anti-hFc, HBS-ET, 25C
Experimental: (§4) Equilibrium dissociation constants (KD values) for IL-2Rγ binding to purified anti-IL2Rγ monoclonal antibodies were determined using a Biacore 4000 instrument equipped with a real-time surface plasmon resonance biosensor. All binding studies were performed in 10 mM HEPES, 150 mM NaCl, 3 mM EDTA, and 0.05% v/v Surfactant Tween-20, pH 7.4 (HBS-ET) running buffer at 25° C. and 37° C. The Biacore sensor surface was first derivatized by amine coupling with a monoclonal mouse anti-human Fc antibody (GE, # BR-1008-39) to capture anti-IL2Rγ monoclonal antibodies.
(§5) The dissociation of monoclonal antibody bound IL2Rγ reagents were monitored for 8-10 minutes in HBS-ET running buffer. Kinetic association (kₐ) and dissociation (kd) rate constants were determined by fitting the real-time sensorgrams to a 1:1 binding model using Scrubber 2.0c curve fitting software. Binding dissociation equilibrium constants (KD) and dissociative half-lives (t_{1/2}) were calculated from the kinetic rate constants as: […]

[9] = target: T4, Human IL2Rγ extracellular domain expressed with a C-terminal myc-myc-hexahistidine tag (human); assay: as above
T4 construct: also called hIL-2Rg-MMH; hIL-2RG-MMH
T4 chain: T1 chain
Experimental: as §4, §5

[10] = target: T4, Human IL2Rγ extracellular domain …; assay: SPR Biacore 4000, mAb captured by anti-hFc, HBS-ET, 37C
Experimental: as §4, §5

[11] = target: T3, Macaca fascicularis IL2Rγ extracellular …; assay: SPR Biacore 4000, mAb captured by anti-hFc, 37C, dissociation in PBS-T pH 7.4
Experimental: as §2, §3

B1: H4H13545P2 (antibody, human IgG4 S228P, kappa, V domains shown)
VH: QVQLQQSGPGLVKPSQTLSLTCDISGDSVSSNIATWNWIRQSPSRGLEWLGRTYYRSKWYKDYAVSVKSRITINPDTSKNQFSLQVNSVTPEDTAVYYCARMTGPRYYFEYWGQGTLVTVSS
VL: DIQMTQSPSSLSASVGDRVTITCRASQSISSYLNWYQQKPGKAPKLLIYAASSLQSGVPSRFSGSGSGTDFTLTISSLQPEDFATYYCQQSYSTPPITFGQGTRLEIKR
notes: anti-IL2Rgamma mAb expressed with human IgG4 Fc
In the case of B1, the “100 nM Ag Bound (RU)” value [1] is reported as 6 RU, the “100 nM Ag Bound (RU)” value [2] is reported as 7 RU and the “100 nM Ag Bound (RU)” value [3] is reported as 20 RU. For the same binder, the koff [3] was 0.00935 s⁻¹, the “t1/2” value [3] was 1.2 min and the “100 nM Ag Bound (RU)” value [4] was 11 RU. The koff [4] was 0.0334 s⁻¹, the “t1/2” value [4] was 0.3 min and the “100 nM Ag Bound (RU)” value [5] was 30 RU. For the same binder, the koff [5] was 0.00751 s⁻¹, the “t1/2” value [5] was 1.5 min and the “100 nM Ag Bound (RU)” value [6] was 15 RU. For the same binder, the koff [6] was 0.0213 s⁻¹ and the “t1/2” value [6] was 0.5 min.

B2: H4H13544P2 (antibody, human IgG4 S228P, kappa, V domains shown)
VH: QLQLQESGPGLVKPSETLSLTCTVSGGSISIKNYYWGWIRQPPGKGLEWIGSIYYSGTTYYNPSLKSRVTISVDTSKNQFSLKLSSVTAADTAVYHCARHGYSYGHGWFDPWGQGTLVTVSS
VL: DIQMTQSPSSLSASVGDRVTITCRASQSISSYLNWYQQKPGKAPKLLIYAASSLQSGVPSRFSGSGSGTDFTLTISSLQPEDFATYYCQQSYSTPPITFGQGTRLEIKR
notes: as for B1
For B2, the “100 nM Ag Bound (RU)” value [1] was 39 RU, the koff [1] was 0.00827 s⁻¹ and the “t1/2” value [1] was 1.4 min. The “100 nM Ag Bound (RU)” value [2] was 54 RU, the koff [2] was 0.0041 s⁻¹ and the “t1/2” value [2] was 2.8 min. For the same binder, the “100 nM Ag Bound (RU)” value [3] was 52 RU, the koff [3] was 0.0017 s⁻¹ and the “t1/2” value [3] was 7 min. For the same binder, the “100 nM Ag Bound (RU)” value [4] was 45 RU, the koff [4] was 0.00175 s⁻¹ and the “t1/2” value [4] was 7 min. The “100 nM Ag Bound (RU)” value [5] was 67 RU, the koff [5] was 0.000584 s⁻¹ and the “t1/2” value [5] was 20 min. For the same binder, the “100 nM Ag Bound (RU)” value [6] was 57 RU, the koff [6] was 0.000602 s⁻¹ and the “t1/2” value [6] was 19 min.

B3: H4H12926P2 (antibody, human IgG4 S228P, kappa, V domains shown)
VH: QVQLQQSGPGLVKPSQTLSLTCAISGDSVSSNIAAWNWIRLSPSRGLEWLGRTFFRSTWFYDYSLSVKGRITINPDTSKNQFSLHLNSVTPEDAAVYYCARTGRRWSLDYWGQGTLVTVSS
VL: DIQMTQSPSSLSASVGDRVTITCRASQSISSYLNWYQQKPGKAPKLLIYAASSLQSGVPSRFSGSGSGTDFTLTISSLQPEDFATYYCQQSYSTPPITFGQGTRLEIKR
notes: as for B1
With B3 the “100 nM Ag Bound (RU)” value [1] was 14 RU, the koff [1] was 0.0312 s⁻¹ and the “t1/2” value [1] was 0.4 min. For the same binder, the “100 nM Ag Bound (RU)” value [2] was 14 RU, the koff [2] was 0.0308 s⁻¹ and the “t1/2” value [2] was 0.4 min. For the same binder, the “100 nM Ag Bound (RU)” value [3] was 32 RU, the koff [3] was 0.0185 s⁻¹ and the “t1/2” value [3] was 0.6 min. The “100 nM Ag Bound (RU)” value [4] was 24 RU, the koff [4] was 0.0297 s⁻¹ and the “t1/2” value [4] was 0.4 min. For the same binder, the “100 nM Ag Bound (RU)” value [5] was 43 RU, the koff [5] was 0.00782 s⁻¹ and the “t1/2” value [5] was 1.5 min. For the same binder, the “100 nM Ag Bound (RU)” value [6] was 29 RU, the koff [6] was 0.0133 s⁻¹ and the “t1/2” value [6] was 0.9 min.

B4: H4H12908P (antibody, human IgG4 S228P, kappa, V domains shown)
VH: EVQLVESGGRLVQPGGSLRLSCEASGFTFSNYGMTWVRQAPGKGLEWVSVISGSDNRKYYAESVKGRFTISRDNSKNTLYLQMNSLRAEDTAVYYCAKLGYSRSSKDFYYGMDVWGQGTTVTVSS
VL: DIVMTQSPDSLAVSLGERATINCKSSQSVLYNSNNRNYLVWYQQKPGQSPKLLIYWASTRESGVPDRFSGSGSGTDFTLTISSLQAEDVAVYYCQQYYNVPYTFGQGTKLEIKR
notes: as for B1
For B4, the “100 nM Ag Bound (RU)” value [1] was 52 RU, the koff [1] was 0.00163 s⁻¹ and the “t1/2” value [1] was 7 min. The “100 nM Ag Bound (RU)” value [2] was 54 RU, the koff [2] was 0.000671 s⁻¹ and the “t1/2” value [2] was 17 min. For the same binder, the “100 nM Ag Bound (RU)” value [3] was 34 RU, the koff [3] was 0.000488 s⁻¹ and the “t1/2” value [3] was 24 min. The “100 nM Ag Bound (RU)” value [4] was 34 RU, the koff [4] was 0.000505 s⁻¹ and the “t1/2” value [4] was 23 min. For the same binder, the “100 nM Ag Bound (RU)” value [5] was 37 RU, the koff [5] was 0.000208 s⁻¹ and the “t1/2” value [5] was 56 min. For the same binder, the “100 nM Ag Bound (RU)” value [6] was 31 RU, the koff [6] was 0.000177 s⁻¹ and the “t1/2” value [6] was 65 min.

B5: H4H13538P (antibody, human IgG4 S228P, kappa, V domains shown)
VH: EVQLVESGGGLVQPGGSLGLSCAASGFTFSNYAMSWVRQAPGKGLEWVSAVSGGGGGTYYADSVKGRFTISRDNSKNTVLLQMNSLRAEDTAVYYCARGRTGGLDYWGPGTLVTVSS
VL: DVVMTQSPLSLPVIFGQPASISCRSSQSLVDSDGNTYLNWLQQRPGQSPRRLIYEVSNRDSGVPDRFSGSGSGTDFTLTISRVEAEDVGIYYCMQGTRWPPTFGGGTKVEIKR
notes: anti-IL2Rγ monoclonal antibody expressed with human IgG4 Fc
For B5, the “100 nM Ag Bound (RU)” value [7] was 122 RU, the koff [7] was 0.00139 s⁻¹ and the t1/2 [7] was 8 min. The “100 nM Ag Bound” value [8] was 81 RU, the Kd [8] was 2.28 nM and the koff [8] was 0.000304 s⁻¹. For the same binder, the kon [8] was 133000 M⁻¹ s⁻¹, the t1/2 [8] was 38 min and the “100 nM Ag Bound” value [9] was 68 RU. For the same binder, the Kd [9] was 1.02 nM, the koff [9] was 0.000227 s⁻¹ and the kon [9] was 222000 M⁻¹ s⁻¹. The t1/2 [9] was 51 min, the “100 nM Ag Bound” value [10] was 99 RU and the Kd [10] was 3.4 nM. The koff [10] was 0.00108 s⁻¹, the kon [10] was 319000 M⁻¹ s⁻¹ and the t1/2 [10] was 11 min. The “100 nM Ag Bound (RU)” value [11] was 119 RU, the koff [11] was 0.00051 s⁻¹ and the t1/2 [11] was 23 min.

B6: H4H12924P2 (antibody, human IgG4 S228P, kappa, V domains shown)
VH: EVQLVESGGGLVQPGRSLRLSCAASGFTLEDYAMHWVRQAPGKGLEWVSGISWNRGSTGYADSVKGRFTISRDNAKNSLYLQMTSLRAEDTALYYCAKGFYSMDVWGQGTTVTVSS
VL: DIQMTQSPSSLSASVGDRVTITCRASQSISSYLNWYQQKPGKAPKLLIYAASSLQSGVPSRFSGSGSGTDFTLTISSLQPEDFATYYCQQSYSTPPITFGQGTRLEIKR
notes: as for B1
For B6, the “100 nM Ag Bound (RU)” value [1] was 133 RU, the koff [1] was 0.0143 s⁻¹ and the “t1/2” value [1] was 0.8 min. The “100 nM Ag Bound (RU)” value [2] was 133 RU, the koff [2] was 0.00302 s⁻¹ and the “t1/2” value [2] was 4 min. For the same binder, the “100 nM Ag Bound (RU)” value [3] was 131 RU, the koff [3] was 0.00305 s⁻¹ and the “t1/2” value [3] was 4 min. The “100 nM Ag Bound (RU)” value [4] was 136 RU, the koff [4] was 0.00367 s⁻¹ and the “t1/2” value [4] was 3 min. The “100 nM Ag Bound (RU)” value [5] was 130 RU, the koff [5] was 0.000385 s⁻¹ and the “t1/2” value [5] was 30 min. For the same binder, the “100 nM Ag Bound (RU)” value [6] was 124 RU, the koff [6] was 0.000479 s⁻¹ and the “t1/2” value [6] was 24 min.
